PMC9772344

Legend:
Conditions in all cases: transfected HeLa cells; n = 3 per group; parent: est. 1.0; read off a plot
[1] = biological target: stromal-interacting molecule 1 (STIM1) (UniProt Q13586); test: Co-IP (GLT-1 capture antibody, immunoblot for STIM1, band quantification)
Orai1 = Orai1 (UniProt Q96D31); test: Co-IP (GLT-1 capture antibody, immunoblot for Orai1, band quantification)
[2] = biological target: stromal-interacting molecule 1 (STIM1) (UniProt Q13586); test: Co-IP (STIM1 capture antibody, immunoblot for GLT-1, band quantification)

Chain of glutamate transporter GLT-1 (excitatory amino acid transporter 2, EAAT2), WT plasmid (P43006 whole entry, stated change not applied): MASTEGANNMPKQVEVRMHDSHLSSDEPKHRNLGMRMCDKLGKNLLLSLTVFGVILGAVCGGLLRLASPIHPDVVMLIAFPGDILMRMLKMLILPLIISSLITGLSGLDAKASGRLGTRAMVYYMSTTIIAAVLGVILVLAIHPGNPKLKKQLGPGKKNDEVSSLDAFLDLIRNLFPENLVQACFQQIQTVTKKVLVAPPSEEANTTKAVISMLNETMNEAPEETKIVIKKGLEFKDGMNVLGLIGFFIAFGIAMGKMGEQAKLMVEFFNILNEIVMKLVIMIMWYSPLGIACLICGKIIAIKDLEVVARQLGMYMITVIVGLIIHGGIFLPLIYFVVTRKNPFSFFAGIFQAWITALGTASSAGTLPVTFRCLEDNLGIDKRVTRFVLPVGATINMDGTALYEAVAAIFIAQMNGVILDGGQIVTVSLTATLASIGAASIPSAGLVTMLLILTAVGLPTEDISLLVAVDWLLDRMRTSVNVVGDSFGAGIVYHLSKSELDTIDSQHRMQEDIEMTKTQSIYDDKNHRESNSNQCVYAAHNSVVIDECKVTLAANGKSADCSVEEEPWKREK
Chain of stromal-interacting molecule 1 (STIM1) (Q13586 23-685): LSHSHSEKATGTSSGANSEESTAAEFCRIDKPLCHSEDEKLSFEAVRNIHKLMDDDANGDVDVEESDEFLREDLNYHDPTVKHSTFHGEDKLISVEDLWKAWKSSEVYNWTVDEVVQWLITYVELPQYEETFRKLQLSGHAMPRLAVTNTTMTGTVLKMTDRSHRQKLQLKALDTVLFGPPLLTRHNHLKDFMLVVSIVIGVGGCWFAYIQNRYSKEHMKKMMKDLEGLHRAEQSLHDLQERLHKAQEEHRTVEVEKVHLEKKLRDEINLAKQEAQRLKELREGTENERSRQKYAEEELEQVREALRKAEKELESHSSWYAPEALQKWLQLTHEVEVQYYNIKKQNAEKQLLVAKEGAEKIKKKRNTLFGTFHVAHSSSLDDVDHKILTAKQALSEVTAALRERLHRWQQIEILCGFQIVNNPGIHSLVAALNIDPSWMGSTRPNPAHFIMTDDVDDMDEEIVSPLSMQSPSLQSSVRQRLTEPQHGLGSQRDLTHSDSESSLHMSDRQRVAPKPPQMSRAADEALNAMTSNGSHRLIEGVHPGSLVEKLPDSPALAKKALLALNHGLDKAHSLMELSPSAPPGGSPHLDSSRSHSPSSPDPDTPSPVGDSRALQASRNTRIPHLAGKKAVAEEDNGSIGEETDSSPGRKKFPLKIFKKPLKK
Chain of Orai1 (Q96D31 whole entry): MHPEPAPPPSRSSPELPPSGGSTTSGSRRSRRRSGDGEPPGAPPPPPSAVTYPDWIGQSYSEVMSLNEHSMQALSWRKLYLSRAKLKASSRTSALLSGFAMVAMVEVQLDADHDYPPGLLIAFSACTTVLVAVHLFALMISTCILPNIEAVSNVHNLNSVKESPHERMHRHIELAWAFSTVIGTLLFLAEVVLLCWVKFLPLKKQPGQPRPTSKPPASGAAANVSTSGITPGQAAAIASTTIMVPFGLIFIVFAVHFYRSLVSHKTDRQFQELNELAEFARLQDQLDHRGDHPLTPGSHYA

glutamate transporter GLT-1 (excitatory amino acid transporter 2, EAAT2), WT plasmid (from UniProt P43006) P289R
response (relative band intensity) [1]: 0.1 | response (relative band intensity) (Orai1): 0.15 | response (relative band intensity) [2]: 0.1
